Peptide exchange yield data for 13 molecules are collected here from US20160250307A1 (IMMATICS BIOTECHNOLOGIES, published 2016).

Assay [1] has as its target HLA-A*02 (human). Description: UV-ligand exchange, anti-b2m ELISA; grade: exchange yield 50%-75%.
Assay [2] deals with HLA-A*02 (human). The assay can be described thus: UV-ligand exchange, anti-b2m ELISA; grade: exchange yield >=50%. On the technique in general: An ELISA detects its analyte on a solid surface through an enzyme-linked reagent.
In assay [3] the target is HLA-A*02 (human). Description: UV-ligand exchange, anti-b2m ELISA; grade: exchange yield >=75%.
In assay [4] the target is HLA-A*02 (human). The description is as above. The source holds these as a separate data set.

For VLADFGARV (also called C1QTNF3-001), the peptide exchange yield with HLA-A*02 [1] was in the range of 50 to 75%.
Turning to ALCEENMRGV (also called EEF2-001), the peptide exchange yield with HLA-A*02 [1] and with HLA-A*02 [2] was 50 to 75% in each case.
In the assay with HLA-A*02 [1], GVYDGEEHSV (also called MAGEB2-001) had a peptide exchange yield of 50 to 75%.
SLLEEFDFHV (also called USO-001): the peptide exchange yield with HLA-A*02 [3] and in the assay with HLA-A*02 [4] was ≥ 75% each time.
For KLQAGTVFV (also called ALDH1L1-001), the peptide exchange yield with HLA-A*02 [1] and with HLA-A*02 [2] was 50 to 75% throughout.
As to AVLGPLGLQEV (also called THT-001), the peptide exchange yield with HLA-A*02 [1] and with HLA-A*02 [2] was 50 to 75% throughout.
Turning to SLLEKELESV (also called DRG2-001), the peptide exchange yield with HLA-A*02 [1] and with HLA-A*02 [2] was 50 to 75% each time.
For KLSPTVVGL (also called AXIN2-001), the peptide exchange yield with HLA-A*02 [1] and with HLA-A*02 [2] was 50 to 75% throughout.
For the molecule KMDPVAYRV (also called QAR-001), the peptide exchange yield with HLA-A*02 [1] and in the assay with HLA-A*02 [2] was 50 to 75% in each case.
On to GLIDTETAMKAV (also called HSD11B1-001), for which the peptide exchange yield with HLA-A*02 [3] and with HLA-A*02 [4] was ≥ 75% each time.
Take SLSQELVGV (also called ZNF318-001): the peptide exchange yield in the assay with HLA-A*02 [1] and with HLA-A*02 [2] was 50 to 75% each time.
KLQDFSDQL (also called APOB-004): the peptide exchange yield with HLA-A*02 [3] and with HLA-A*02 [4] was ≥ 75% each time.
Turning to KLLEEATISV (also called DYM-001), the peptide exchange yield with HLA-A*02 [1] and with HLA-A*02 [2] was 50 to 75% throughout.
